Here are results for 7 molecules from US20070020227A1.

Test in all cases: cell-based or functional assay
The target of assay [1] is T1, zcyto20 (human IL-28A) (human) (UniProt Q8IZJ0).
T1 sequence: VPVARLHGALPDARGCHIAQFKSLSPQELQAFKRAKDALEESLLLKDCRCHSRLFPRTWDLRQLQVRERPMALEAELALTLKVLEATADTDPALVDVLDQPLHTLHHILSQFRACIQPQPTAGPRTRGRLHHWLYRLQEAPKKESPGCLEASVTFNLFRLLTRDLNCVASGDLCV

The target in assay [2] is zcyto21 (SEQ ID NO:15) (human) (UniProt Q8IU54).
Assay [3] concerns the target T2, zcyto24 (mouse IL-28, SEQ ID NO: 8) (mouse) (UniProt Q4VK74).
T2 sequence: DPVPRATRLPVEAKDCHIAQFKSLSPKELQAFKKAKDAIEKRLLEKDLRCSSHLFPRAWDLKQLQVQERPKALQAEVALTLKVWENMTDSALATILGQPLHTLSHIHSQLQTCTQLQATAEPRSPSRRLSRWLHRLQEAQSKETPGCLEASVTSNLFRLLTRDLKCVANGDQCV

Assay [4] concerns the target human IL-28 receptor on 293 HEK cells (transfected IL-28 receptor alpha subunit with endogenous CRF2-4) (human).

Substitutions are numbered along the chain they refer to.

Chain of UniProt Q8IU54 (Q8IU54 other isoform, or with tags, fused parts or gaps): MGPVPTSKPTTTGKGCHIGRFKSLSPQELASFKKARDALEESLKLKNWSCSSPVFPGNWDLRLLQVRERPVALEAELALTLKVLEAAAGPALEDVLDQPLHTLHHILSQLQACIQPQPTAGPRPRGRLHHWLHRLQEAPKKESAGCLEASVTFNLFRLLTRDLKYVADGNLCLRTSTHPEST
Chain of human IL-28 receptor on 293 HEK cells (transfected IL-28 receptor alpha subunit with endogenous CRF2-4) (human) (Q8IU57 whole entry, chain 1 of 2): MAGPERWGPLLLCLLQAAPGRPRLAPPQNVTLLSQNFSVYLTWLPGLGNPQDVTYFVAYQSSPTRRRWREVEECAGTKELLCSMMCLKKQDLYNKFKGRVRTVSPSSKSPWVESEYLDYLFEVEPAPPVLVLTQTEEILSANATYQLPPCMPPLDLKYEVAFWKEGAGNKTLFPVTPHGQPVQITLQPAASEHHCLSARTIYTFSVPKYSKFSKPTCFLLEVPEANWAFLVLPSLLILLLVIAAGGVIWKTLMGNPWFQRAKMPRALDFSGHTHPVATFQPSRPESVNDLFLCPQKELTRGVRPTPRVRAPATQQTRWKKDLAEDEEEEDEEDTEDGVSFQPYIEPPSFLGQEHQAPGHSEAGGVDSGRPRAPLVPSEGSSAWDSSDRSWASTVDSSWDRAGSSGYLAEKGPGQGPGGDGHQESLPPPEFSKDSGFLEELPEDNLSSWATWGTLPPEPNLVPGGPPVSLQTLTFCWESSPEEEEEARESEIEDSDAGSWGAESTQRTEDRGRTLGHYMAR
Chain of human IL-28 receptor on 293 HEK cells (transfected IL-28 receptor alpha subunit with endogenous CRF2-4) (human) (Q08334 whole entry, chain 2 of 2, further chain): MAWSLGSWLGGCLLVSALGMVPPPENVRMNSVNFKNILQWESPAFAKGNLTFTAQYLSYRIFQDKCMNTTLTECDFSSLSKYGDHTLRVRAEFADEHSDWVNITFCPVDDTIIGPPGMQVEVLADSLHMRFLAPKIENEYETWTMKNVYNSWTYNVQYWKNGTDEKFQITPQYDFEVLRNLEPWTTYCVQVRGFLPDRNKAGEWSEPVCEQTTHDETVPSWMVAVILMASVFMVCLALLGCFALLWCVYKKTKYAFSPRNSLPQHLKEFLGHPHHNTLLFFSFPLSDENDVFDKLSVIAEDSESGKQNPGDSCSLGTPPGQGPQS

As to “human zcytor19-Fc/human CRF2-4-Fc heterodimer soluble receptor (Fc fusion)”, the Percent Inhibition of Ligand-induced ISRE Signaling by Soluble Receptors (10 ng/ml ligand, 10 micrograms/ml soluble receptor) was determined as 16% in assay [1], 16% in assay [2] and 47% in assay [3].

As to “huIL10 (from UniProt P22301 19-178) (ligand)”, the ISRE Signaling of Transfected 293 Cells (Fold Induction), ISRE-Luc./IL-28R, ligand 100 ng/ml (fold induction) in assay [4] was 0.5.

With “human CRF2-4-Fc homodimer soluble receptor (Fc fusion)”, the Percent Inhibition of Ligand-induced ISRE Signaling by Soluble Receptors (10 ng/ml ligand, 10 micrograms/ml soluble receptor) in assay [1] is 80%; in assay [2], 79%; in assay [3], 82%.

Molecule zcyto10 (ligand) registered an ISRE Signaling of Transfected 293 Cells (Fold Induction), ISRE-Luc./IL-28R, ligand 125 ng/ml (fold induction) in assay [4] of 1.

B1: murine zcytor19-Ig homodimer soluble receptor (Fc fusion, part only; not given: Ig portion, UniProt Q8CGK5 21-227, looked up, part only)
chain, part: RPRLAPPRNVTLFSQNFTVYLTWLPGLGSPPNVTYFVTYQSYIKTGWRPVEHCAGIKALVCPLMCLKKLNLYSKFKGRVQAASAHGRSPRVESRYLEYLFDVELAPPTLVLTQMEKILRVNATYQLPPCMPSLELKYQVEFWKEGLGSKTLFPDTPYGQPVQIPLQQGASRRHCLSARTVYTLIDIKYSQFSEPSCIFLEAPGDKRA
On to B1, for which the Percent Inhibition of Ligand-induced ISRE Signaling by Soluble Receptors (10 ng/ml ligand, 10 micrograms/ml soluble receptor) was determined as 91% in assay [1], 103% in assay [2] and 89% in assay [3].

B2: IL-28B (SEQ ID NO: 6) (ligand)
chain: T1 sequence with H7R, R49K, H51R, M71V, V95G, F112L, Y135H
On to B2, for which the ISRE Signaling of Transfected 293 Cells (Fold Induction), ISRE-Luc./IL-28R, ligand 125 ng/ml (fold induction) in assay [4] amounted to 104.

B3: human zcytor19-Fc homodimer soluble receptor (Fc fusion, not shown: a dimerising Fc or GST)
chain: RPRLAPPQNVTLLSQNFSVYLTWLPGLGNPQDVTYFVAYQSSPTRRRWREVEECAGTKELLCSMMCLKKQDLYNKFKGRVRTVSPSSKSPWVESEYLDYLFEVEPAPPVLVLTQTEEILSANATYQLPPCMPPLDLKYEVAFWKEGAGNKTLFPVTPHGQPVQITLQPAASEHHCLSARTIYTFSVPKYSKFSKPTCFLLEVPEANWA
Turning to B3, the values for the Percent Inhibition of Ligand-induced ISRE Signaling by Soluble Receptors (10 ng/ml ligand, 10 micrograms/ml soluble receptor) in assay [1], in assay [2] and in assay [3] were 92%, 45% and 90%, respectively.
